Molecular target: PCSK9抗原 (前蛋白转化酶枯草溶菌素9, Proprotein convertase subtilisin/kexin type 9)
Assay: SPR, Biacore T200, PCSK9 coupled to CM5 chip (~790 RU), VHH as analyte 218-13.5 nM

- Kd: 2.63 nM
- koff: 0.000584 s⁻¹
- kon: 222000 M⁻¹ s⁻¹
B1: PCSK9单域抗体VHHH12 (VHH)
VHH: QVQLQESGGGLVQAGGSLRLSCAASGRTFSDYAVGWFRQAPGKEREFVAGIGWSGGQTTYADSVKGRFTISRDNAKDTVYLQMNSLKPEDTAVYVCAASFLVIPGTVKTRYDSWGQGTQVTVPA
notes: Alpaca VHH expressed from pMECS in E. coli HB2151 and purified on a Ni column; also called 抗PCSK9单域抗体VHHH12; PCSK9单域抗体蛋白VHHH12; not shown: C-terminal tags from the pMECS vector (HA tag, detected with anti-HA antibody)

— patent publication CN116333149A (UNIV HENAN URBAN CONSTRUCTION, dated 2023)
